Each sequence was assayed on AncSZ (assay: phosphorylation enrichment, bacterial display (enrichment ratio); higher = better substrate or ligand; peptides without Tyr show the background).
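Further: 11-residue human phosphosite peptides and single-mutation variants displayed on the E. coli surface, counted by deep sequencing, each peptide's frequency after selection divided by its frequency in the unselected input library; frequency after pTyr selection over input frequency; kinase dosed for 20-30% of maximal phosphorylation in three min.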

| Sequence | phosphorylation enrichment |
| --- | --- |
| RFLRGYRQDAF [HLA-A_Y137_YF] | 0.644 |
| CVRTIYTIDGS [DCLK2_Y124_G119C] | 0.891 |
| LKKLEYLNLPL [LRRC6_Y70_A74P] | 0.818 |
| AHPGEYGAEAL [HBA1_Y25_A22P] | 0.801 |
| TESNNYIYKTL [FAM83B_Y637] | 0.729 |
| LGPSDYFGEIV [PRKAR1A_Y323_A328V] | 1.41 |
| EVEPTYVVLFD [ERCC4_Y577_R576T_YF] | 1.51 |
| EDKFMYSEFPQ [PTEN_Y240_F241S] | 1.51 |
| GNEEAYGRSHI [FAM171B_Y522] | 0.825 |
| RRGTGYTLSLP [MAGEC3_Y152] | 0.579 |
| WIPIQDPIISE [NOG_Y222_Y222D] | 1.18 |
| TGYRPYVCPFD [YY1_Y383_D380Y] | 1.16 |
| INITIYGKTFC [EFHC1_Y177_R182C] | 1.22 |
| WCSNDHLGMSR [ALAS2_Y199_Y199H] | 0.754 |
| FTYDPYSEEEP [IL2RB_Y387_D391E] | 1.22 |
| IRTDAYVWAMT [RPE65_Y89_R91W] | 1.07 |

The sequences below were run against MERTK (UniProt Q12866) in the same assay as above.
MERTK, sequence (Q12866 whole entry, looked up): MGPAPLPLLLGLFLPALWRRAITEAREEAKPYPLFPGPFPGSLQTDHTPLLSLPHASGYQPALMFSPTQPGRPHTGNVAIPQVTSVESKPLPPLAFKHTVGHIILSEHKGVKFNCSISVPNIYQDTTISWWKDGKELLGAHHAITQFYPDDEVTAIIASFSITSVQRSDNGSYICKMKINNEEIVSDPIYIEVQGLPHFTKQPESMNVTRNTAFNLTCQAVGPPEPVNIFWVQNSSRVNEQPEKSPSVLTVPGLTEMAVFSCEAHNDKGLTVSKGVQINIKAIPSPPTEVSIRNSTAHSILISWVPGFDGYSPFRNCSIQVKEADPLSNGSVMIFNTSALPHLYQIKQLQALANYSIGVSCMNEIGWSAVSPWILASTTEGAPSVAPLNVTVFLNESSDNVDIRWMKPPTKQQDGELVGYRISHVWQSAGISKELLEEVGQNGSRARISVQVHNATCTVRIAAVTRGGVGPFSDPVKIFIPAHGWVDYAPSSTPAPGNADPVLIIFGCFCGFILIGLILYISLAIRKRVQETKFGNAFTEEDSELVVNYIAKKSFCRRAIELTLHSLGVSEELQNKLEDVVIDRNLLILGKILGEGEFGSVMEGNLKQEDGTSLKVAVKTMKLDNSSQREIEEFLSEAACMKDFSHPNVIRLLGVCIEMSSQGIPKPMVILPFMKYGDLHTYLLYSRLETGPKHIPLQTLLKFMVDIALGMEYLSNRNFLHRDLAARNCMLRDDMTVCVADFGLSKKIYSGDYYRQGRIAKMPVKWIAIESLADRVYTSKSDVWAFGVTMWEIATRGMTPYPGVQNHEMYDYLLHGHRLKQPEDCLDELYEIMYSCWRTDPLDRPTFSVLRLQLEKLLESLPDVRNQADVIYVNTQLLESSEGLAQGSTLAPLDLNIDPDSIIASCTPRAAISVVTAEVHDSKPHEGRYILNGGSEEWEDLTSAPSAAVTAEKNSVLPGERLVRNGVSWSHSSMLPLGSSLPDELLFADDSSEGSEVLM

| Sequence | phosphorylation enrichment |
| --- | --- |
| RFLRGYRQDAF [HLA-A_Y137_YF] | 0.799 |
| CVRTIYTIDGS [DCLK2_Y124_G119C] | 0.481 |
| LKKLEYLNLPL [LRRC6_Y70_A74P] | 0.423 |
| AHPGEYGAEAL [HBA1_Y25_A22P] | 0.443 |
| TESNNYIYKTL [FAM83B_Y637] | 0.535 |
| LGPSDYFGEIV [PRKAR1A_Y323_A328V] | 0.529 |
| EVEPTYVVLFD [ERCC4_Y577_R576T_YF] | 3.5 |
| EDKFMYSEFPQ [PTEN_Y240_F241S] | 2.02 |
| GNEEAYGRSHI [FAM171B_Y522] | 0.455 |
| RRGTGYTLSLP [MAGEC3_Y152] | 0.551 |
| WIPIQDPIISE [NOG_Y222_Y222D] | 0.474 |
| TGYRPYVCPFD [YY1_Y383_D380Y] | 0.551 |
| INITIYGKTFC [EFHC1_Y177_R182C] | 0.548 |
| WCSNDHLGMSR [ALAS2_Y199_Y199H] | 0.418 |
| FTYDPYSEEEP [IL2RB_Y387_D391E] | 0.524 |
| IRTDAYVWAMT [RPE65_Y89_R91W] | 0.413 |

The sequences below were run against Hck (UniProt P08631) in the same assay as above.
Hck, sequence (P08631 whole entry, looked up): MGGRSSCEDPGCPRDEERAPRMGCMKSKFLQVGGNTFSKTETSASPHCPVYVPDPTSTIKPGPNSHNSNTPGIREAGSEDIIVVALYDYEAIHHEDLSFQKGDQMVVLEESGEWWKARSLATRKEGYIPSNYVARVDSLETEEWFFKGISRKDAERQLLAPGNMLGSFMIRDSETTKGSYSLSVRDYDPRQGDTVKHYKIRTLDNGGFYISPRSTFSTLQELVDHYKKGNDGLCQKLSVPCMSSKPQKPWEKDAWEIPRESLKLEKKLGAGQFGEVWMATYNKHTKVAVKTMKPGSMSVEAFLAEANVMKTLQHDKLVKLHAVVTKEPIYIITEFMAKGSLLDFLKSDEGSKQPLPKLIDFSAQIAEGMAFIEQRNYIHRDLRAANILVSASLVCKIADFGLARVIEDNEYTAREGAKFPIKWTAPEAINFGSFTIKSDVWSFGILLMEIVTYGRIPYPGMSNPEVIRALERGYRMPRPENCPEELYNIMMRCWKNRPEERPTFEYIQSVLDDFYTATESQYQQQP

| Sequence | phosphorylation enrichment |
| --- | --- |
| RFLRGYRQDAF [HLA-A_Y137_YF] | 0.802 |
| CVRTIYTIDGS [DCLK2_Y124_G119C] | 0.683 |
| LKKLEYLNLPL [LRRC6_Y70_A74P] | 0.518 |
| AHPGEYGAEAL [HBA1_Y25_A22P] | 0.486 |
| TESNNYIYKTL [FAM83B_Y637] | 0.99 |
| LGPSDYFGEIV [PRKAR1A_Y323_A328V] | 0.577 |
| EVEPTYVVLFD [ERCC4_Y577_R576T_YF] | 3.99 |
| EDKFMYSEFPQ [PTEN_Y240_F241S] | 2.07 |
| GNEEAYGRSHI [FAM171B_Y522] | 0.471 |
| RRGTGYTLSLP [MAGEC3_Y152] | 0.693 |
| WIPIQDPIISE [NOG_Y222_Y222D] | 0.622 |
| TGYRPYVCPFD [YY1_Y383_D380Y] | 0.525 |
| INITIYGKTFC [EFHC1_Y177_R182C] | 0.505 |
| WCSNDHLGMSR [ALAS2_Y199_Y199H] | 0.375 |
| FTYDPYSEEEP [IL2RB_Y387_D391E] | 0.825 |
| IRTDAYVWAMT [RPE65_Y89_R91W] | 0.517 |

Each sequence was assayed against FGFR1 (UniProt P11362) in the same assay as above.
FGFR1, sequence (P11362 whole entry, looked up): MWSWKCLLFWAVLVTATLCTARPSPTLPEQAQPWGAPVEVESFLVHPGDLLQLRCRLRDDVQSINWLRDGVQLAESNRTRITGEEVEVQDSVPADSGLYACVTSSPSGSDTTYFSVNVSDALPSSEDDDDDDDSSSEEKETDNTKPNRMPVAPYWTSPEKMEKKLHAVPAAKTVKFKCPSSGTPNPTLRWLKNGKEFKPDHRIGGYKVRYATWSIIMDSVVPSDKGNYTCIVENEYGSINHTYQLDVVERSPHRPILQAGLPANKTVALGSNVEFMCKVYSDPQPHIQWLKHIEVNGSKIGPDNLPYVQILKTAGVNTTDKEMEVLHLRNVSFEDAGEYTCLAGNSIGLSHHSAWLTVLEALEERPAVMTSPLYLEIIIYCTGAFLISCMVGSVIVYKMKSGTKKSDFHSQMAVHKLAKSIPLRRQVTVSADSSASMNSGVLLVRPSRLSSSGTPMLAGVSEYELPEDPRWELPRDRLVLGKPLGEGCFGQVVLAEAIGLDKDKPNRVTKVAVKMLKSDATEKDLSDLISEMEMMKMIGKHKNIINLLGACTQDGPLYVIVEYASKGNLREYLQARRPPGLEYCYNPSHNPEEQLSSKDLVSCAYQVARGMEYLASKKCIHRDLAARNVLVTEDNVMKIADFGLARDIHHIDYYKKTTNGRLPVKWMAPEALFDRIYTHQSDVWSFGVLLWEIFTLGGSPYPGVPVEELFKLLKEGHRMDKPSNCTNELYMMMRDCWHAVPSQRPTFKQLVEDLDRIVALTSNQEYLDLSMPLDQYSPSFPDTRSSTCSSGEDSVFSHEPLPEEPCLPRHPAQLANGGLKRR

| Sequence | phosphorylation enrichment |
| --- | --- |
| RFLRGYRQDAF [HLA-A_Y137_YF] | 0.569 |
| CVRTIYTIDGS [DCLK2_Y124_G119C] | 0.447 |
| LKKLEYLNLPL [LRRC6_Y70_A74P] | 1.26 |
| AHPGEYGAEAL [HBA1_Y25_A22P] | 0.453 |
| TESNNYIYKTL [FAM83B_Y637] | 0.625 |
| LGPSDYFGEIV [PRKAR1A_Y323_A328V] | 1.49 |
| EVEPTYVVLFD [ERCC4_Y577_R576T_YF] | 5.46 |
| EDKFMYSEFPQ [PTEN_Y240_F241S] | 1.49 |
| GNEEAYGRSHI [FAM171B_Y522] | 0.378 |
| RRGTGYTLSLP [MAGEC3_Y152] | 0.772 |
| WIPIQDPIISE [NOG_Y222_Y222D] | 0.578 |
| TGYRPYVCPFD [YY1_Y383_D380Y] | 0.621 |
| INITIYGKTFC [EFHC1_Y177_R182C] | 0.581 |
| WCSNDHLGMSR [ALAS2_Y199_Y199H] | 0.416 |
| FTYDPYSEEEP [IL2RB_Y387_D391E] | 0.5 |
| IRTDAYVWAMT [RPE65_Y89_R91W] | 0.613 |

Each sequence was assayed on c-Src in the same assay as above.

| Sequence | phosphorylation enrichment |
| --- | --- |
| RFLRGYRQDAF [HLA-A_Y137_YF] | 0.413 |
| CVRTIYTIDGS [DCLK2_Y124_G119C] | 1.97 |
| LKKLEYLNLPL [LRRC6_Y70_A74P] | 0.374 |
| AHPGEYGAEAL [HBA1_Y25_A22P] | 0.408 |
| TESNNYIYKTL [FAM83B_Y637] | 1.28 |
| LGPSDYFGEIV [PRKAR1A_Y323_A328V] | 0.781 |
| EVEPTYVVLFD [ERCC4_Y577_R576T_YF] | 5.25 |
| EDKFMYSEFPQ [PTEN_Y240_F241S] | 2.91 |
| GNEEAYGRSHI [FAM171B_Y522] | 0.471 |
| RRGTGYTLSLP [MAGEC3_Y152] | 0.497 |
| WIPIQDPIISE [NOG_Y222_Y222D] | 0.557 |
| TGYRPYVCPFD [YY1_Y383_D380Y] | 0.412 |
| INITIYGKTFC [EFHC1_Y177_R182C] | 0.597 |
| WCSNDHLGMSR [ALAS2_Y199_Y199H] | 0.447 |
| FTYDPYSEEEP [IL2RB_Y387_D391E] | 1.69 |
| IRTDAYVWAMT [RPE65_Y89_R91W] | 0.372 |

Each sequence was assayed on Fer (mouse) in the same assay as above.

| Sequence | phosphorylation enrichment |
| --- | --- |
| RFLRGYRQDAF [HLA-A_Y137_YF] | 0.658 |
| CVRTIYTIDGS [DCLK2_Y124_G119C] | 0.505 |
| LKKLEYLNLPL [LRRC6_Y70_A74P] | 0.47 |
| AHPGEYGAEAL [HBA1_Y25_A22P] | 0.425 |
| TESNNYIYKTL [FAM83B_Y637] | 0.512 |
| LGPSDYFGEIV [PRKAR1A_Y323_A328V] | 0.586 |
| EVEPTYVVLFD [ERCC4_Y577_R576T_YF] | 1.08 |
| EDKFMYSEFPQ [PTEN_Y240_F241S] | 0.734 |
| GNEEAYGRSHI [FAM171B_Y522] | 0.456 |
| RRGTGYTLSLP [MAGEC3_Y152] | 0.564 |
| WIPIQDPIISE [NOG_Y222_Y222D] | 0.52 |
| TGYRPYVCPFD [YY1_Y383_D380Y] | 0.574 |
| INITIYGKTFC [EFHC1_Y177_R182C] | 0.617 |
| WCSNDHLGMSR [ALAS2_Y199_Y199H] | 0.438 |
| FTYDPYSEEEP [IL2RB_Y387_D391E] | 0.601 |
| IRTDAYVWAMT [RPE65_Y89_R91W] | 0.554 |

These sequences were tested against EPHB2 (UniProt P29323) in the same assay as above.
EPHB2, sequence (P29323 whole entry, looked up): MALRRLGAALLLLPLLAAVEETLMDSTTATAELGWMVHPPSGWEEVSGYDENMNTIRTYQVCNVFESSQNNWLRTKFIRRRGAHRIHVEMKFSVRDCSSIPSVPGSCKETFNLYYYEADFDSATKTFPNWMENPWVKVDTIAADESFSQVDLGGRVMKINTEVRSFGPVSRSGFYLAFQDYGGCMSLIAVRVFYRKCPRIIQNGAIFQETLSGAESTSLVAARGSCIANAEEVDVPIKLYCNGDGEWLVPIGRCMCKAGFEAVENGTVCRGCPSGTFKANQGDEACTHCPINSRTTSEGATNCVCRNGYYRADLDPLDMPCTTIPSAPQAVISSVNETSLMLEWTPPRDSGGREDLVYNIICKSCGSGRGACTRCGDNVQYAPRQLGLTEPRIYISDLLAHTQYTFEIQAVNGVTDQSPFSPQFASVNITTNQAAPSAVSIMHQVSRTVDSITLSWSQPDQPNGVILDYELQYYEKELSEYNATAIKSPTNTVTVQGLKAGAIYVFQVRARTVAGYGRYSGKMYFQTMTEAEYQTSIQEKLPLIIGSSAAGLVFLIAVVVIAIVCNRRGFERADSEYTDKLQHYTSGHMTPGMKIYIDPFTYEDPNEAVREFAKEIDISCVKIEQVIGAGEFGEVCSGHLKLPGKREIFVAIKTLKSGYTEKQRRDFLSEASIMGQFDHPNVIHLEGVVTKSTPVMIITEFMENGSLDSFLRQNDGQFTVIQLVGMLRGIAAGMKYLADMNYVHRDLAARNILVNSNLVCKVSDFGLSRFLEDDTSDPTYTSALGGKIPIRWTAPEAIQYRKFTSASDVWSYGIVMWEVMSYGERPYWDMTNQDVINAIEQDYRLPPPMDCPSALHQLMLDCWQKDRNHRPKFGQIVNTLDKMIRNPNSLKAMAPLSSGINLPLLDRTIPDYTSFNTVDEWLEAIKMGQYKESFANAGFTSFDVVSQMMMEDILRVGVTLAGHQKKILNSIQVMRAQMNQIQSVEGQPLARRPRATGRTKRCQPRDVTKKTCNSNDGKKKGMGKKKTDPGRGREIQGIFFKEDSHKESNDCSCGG

| Sequence | phosphorylation enrichment |
| --- | --- |
| RFLRGYRQDAF [HLA-A_Y137_YF] | 0.47 |
| CVRTIYTIDGS [DCLK2_Y124_G119C] | 0.628 |
| LKKLEYLNLPL [LRRC6_Y70_A74P] | 0.441 |
| AHPGEYGAEAL [HBA1_Y25_A22P] | 0.51 |
| TESNNYIYKTL [FAM83B_Y637] | 0.44 |
| LGPSDYFGEIV [PRKAR1A_Y323_A328V] | 0.722 |
| EVEPTYVVLFD [ERCC4_Y577_R576T_YF] | 14.1 |
| EDKFMYSEFPQ [PTEN_Y240_F241S] | 1.05 |
| GNEEAYGRSHI [FAM171B_Y522] | 0.438 |
| RRGTGYTLSLP [MAGEC3_Y152] | 0.643 |
| WIPIQDPIISE [NOG_Y222_Y222D] | 0.551 |
| TGYRPYVCPFD [YY1_Y383_D380Y] | 0.706 |
| INITIYGKTFC [EFHC1_Y177_R182C] | 0.684 |
| WCSNDHLGMSR [ALAS2_Y199_Y199H] | 0.514 |
| FTYDPYSEEEP [IL2RB_Y387_D391E] | 0.572 |
| IRTDAYVWAMT [RPE65_Y89_R91W] | 0.6 |

Each sequence was assayed against EPHB1 (UniProt P54762) in the same assay as above.
EPHB1, sequence (P54762 whole entry, looked up): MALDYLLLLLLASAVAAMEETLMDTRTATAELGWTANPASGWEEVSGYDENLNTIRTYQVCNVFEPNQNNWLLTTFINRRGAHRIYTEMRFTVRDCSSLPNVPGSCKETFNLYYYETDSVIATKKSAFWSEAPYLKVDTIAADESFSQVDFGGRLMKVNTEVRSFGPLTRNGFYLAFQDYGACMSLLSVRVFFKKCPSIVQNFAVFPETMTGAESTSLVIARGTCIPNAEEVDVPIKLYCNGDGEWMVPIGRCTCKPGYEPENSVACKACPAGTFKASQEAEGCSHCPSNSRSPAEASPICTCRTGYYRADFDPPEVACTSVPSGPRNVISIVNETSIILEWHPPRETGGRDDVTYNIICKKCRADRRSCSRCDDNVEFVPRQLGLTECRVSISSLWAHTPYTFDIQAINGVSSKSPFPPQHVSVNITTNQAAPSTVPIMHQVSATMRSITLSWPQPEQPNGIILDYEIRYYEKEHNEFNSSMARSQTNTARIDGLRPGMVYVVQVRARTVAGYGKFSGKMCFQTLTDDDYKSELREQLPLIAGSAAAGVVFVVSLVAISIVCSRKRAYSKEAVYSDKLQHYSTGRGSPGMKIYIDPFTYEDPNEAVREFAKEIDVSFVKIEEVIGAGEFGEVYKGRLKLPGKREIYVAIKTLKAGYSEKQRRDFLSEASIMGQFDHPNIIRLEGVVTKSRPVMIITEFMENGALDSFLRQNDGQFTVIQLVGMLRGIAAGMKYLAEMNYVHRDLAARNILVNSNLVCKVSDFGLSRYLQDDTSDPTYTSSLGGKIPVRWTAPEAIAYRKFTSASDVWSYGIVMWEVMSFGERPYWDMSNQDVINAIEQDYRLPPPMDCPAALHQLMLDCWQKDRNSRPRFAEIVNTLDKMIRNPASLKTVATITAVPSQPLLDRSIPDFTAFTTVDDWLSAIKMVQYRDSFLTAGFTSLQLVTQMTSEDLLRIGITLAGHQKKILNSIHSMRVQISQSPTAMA

| Sequence | phosphorylation enrichment |
| --- | --- |
| RFLRGYRQDAF [HLA-A_Y137_YF] | 0.742 |
| CVRTIYTIDGS [DCLK2_Y124_G119C] | 0.746 |
| LKKLEYLNLPL [LRRC6_Y70_A74P] | 0.531 |
| AHPGEYGAEAL [HBA1_Y25_A22P] | 0.516 |
| TESNNYIYKTL [FAM83B_Y637] | 0.483 |
| LGPSDYFGEIV [PRKAR1A_Y323_A328V] | 0.717 |
| EVEPTYVVLFD [ERCC4_Y577_R576T_YF] | 11.1 |
| EDKFMYSEFPQ [PTEN_Y240_F241S] | 0.771 |
| GNEEAYGRSHI [FAM171B_Y522] | 0.448 |
| RRGTGYTLSLP [MAGEC3_Y152] | 0.553 |
| WIPIQDPIISE [NOG_Y222_Y222D] | 0.678 |
| TGYRPYVCPFD [YY1_Y383_D380Y] | 0.753 |
| INITIYGKTFC [EFHC1_Y177_R182C] | 0.656 |
| WCSNDHLGMSR [ALAS2_Y199_Y199H] | 0.394 |
| FTYDPYSEEEP [IL2RB_Y387_D391E] | 0.652 |
| IRTDAYVWAMT [RPE65_Y89_R91W] | 0.573 |

— the supplement of paper PMC10065799, “High-throughput profiling of sequence recognition by tyrosine kinases and SH2 domains using bacterial peptide display” (eLife, 2023)
